T1: LRP6E3E4_O75581_631-1246 (Homo sapiens (Human), UniProt O75581 631-1246, biotinylated in the BLI/SPR assays (C-terminal biotin acceptor peptide))
T1 construct: The entry holds residues 631-1246 of UniProt O75581 followed by a biotin acceptor peptide and eight His
T1 sequence: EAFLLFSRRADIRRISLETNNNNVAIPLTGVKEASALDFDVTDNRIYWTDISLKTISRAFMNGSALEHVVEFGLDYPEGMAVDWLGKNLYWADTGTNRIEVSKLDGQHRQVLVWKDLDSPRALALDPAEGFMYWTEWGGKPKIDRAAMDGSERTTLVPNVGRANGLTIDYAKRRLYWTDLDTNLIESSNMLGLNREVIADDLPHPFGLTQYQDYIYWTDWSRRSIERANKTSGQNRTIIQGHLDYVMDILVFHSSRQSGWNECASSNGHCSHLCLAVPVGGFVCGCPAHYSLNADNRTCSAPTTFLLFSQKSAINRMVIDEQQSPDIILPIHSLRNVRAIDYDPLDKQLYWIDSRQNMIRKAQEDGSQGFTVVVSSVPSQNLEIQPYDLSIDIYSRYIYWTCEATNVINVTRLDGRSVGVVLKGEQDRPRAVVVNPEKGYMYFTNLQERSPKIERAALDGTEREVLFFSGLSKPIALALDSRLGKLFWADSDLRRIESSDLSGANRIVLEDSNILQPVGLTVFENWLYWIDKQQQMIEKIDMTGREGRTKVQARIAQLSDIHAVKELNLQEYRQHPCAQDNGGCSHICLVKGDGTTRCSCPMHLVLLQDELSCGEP

T2: LRP6e1e2 (UniProt O75581 20-630, limits assumed, C-terminally biotinylated)
T2 construct: domain: E1E2; also called LRP6 E1E2 domains
T2 sequence (looked up): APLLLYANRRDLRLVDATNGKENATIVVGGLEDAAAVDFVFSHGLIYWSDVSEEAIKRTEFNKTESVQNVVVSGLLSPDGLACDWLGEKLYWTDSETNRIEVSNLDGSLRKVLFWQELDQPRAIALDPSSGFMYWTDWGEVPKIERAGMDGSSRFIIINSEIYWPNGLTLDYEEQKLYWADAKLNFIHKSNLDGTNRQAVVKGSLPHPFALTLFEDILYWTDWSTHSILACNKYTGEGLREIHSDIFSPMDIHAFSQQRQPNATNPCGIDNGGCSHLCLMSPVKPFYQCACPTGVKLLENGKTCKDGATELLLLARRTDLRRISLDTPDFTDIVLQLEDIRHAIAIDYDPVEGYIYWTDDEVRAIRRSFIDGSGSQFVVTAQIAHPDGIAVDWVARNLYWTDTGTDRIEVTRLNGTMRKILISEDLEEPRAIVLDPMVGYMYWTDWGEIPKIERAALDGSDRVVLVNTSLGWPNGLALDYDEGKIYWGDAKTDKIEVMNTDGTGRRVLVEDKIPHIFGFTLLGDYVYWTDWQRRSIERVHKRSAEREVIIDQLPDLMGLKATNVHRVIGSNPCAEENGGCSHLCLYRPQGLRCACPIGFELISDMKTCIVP

T3: biotinylated-LRP6 CRD (UniProt O75581 631-1246, limits assumed, biotinylated)
T3 construct: LRP6 has no CRD
T3 sequence (looked up): T1 sequence

B1: 009S-G04 (VHH)
VHH: EVQLVESGGGLVQAGGSLRVSCAASGGTFSRYHMGWFRQAPGKEREFVSAITWSGGRTYYADFVKGRFTISRDDARNTVYLQMSSLKPEDTAVYYCALTWAPTPTNRRSDYAYWGQGTQVTVSS
B2: 009S-A03 (VHH)
VHH: QVQLVESGGGLVQAGDSLRLSCVVSGRTFSVYGVGWFRQAPGKEREVVAAVSASGGYTWYADSVKGRFTISRDNAKSTAFLQMNSLQPEDTAVYYCKAAPRWGGATAYWGQGTQVTVSS
B3: 013S-G04 (HC SEQ ID NO 15) (VHH)
VHH: AVQLVESGGGLVQAGGSLRLACAGSGRIFAIYDIAWYRQAPGNQRELVATIRPVVSETTYADAVKGRFTISRSNAMKTVYLQMNSLKSEDTAIYYCNAKRPWGTRDEYWGQGTLVTVSS
B4: 009S-B04 (VHH)
VHH: DVQLVESGGGLVQPGGSLRLSCAASGSIFMINTMAWYRQAPGNQRELVATIRPVVSETTYADAVKGRFTISRDNAKNTVYLQMNSLKSEDTAIYYCNAKRPWGTRDEYWGQGTLVTVSS
B5: 009S-F04 (VHH)
VHH: AVQLVESGGGVVQAGDSLTLSCTMSGRSLSSFAMGWFRRAPGKEREFVARISRGDGYTDEADSVKGRFTISRDNAKNTVYLQMNNVGPEDTAVYHCAAVQAVIGGTLTTAYDYWGQGTLVTVSS
B6: 009S-A05 (VHH)
VHH: AVQLVDSGGGLVQAGDSLTLSCAASGRTFSDYSMGWFRQAPGKEREFVAGISWIADNRYYADVVKGRFTISRDNAKNTVYLQMNSLKPEDTAVYYCTAGRSRYLYGSSLNGPYDYWGQGTQVTVSS
B7: 009S-H03 (VHH)
VHH: DVQLVESGGGLVQAGESLRLSCAASGSIFSINTMGWYRQAPGKERELVAVITSGGKTVYADSVKGRFTITEDAAKNTVYLQMNSLKAEDTAVYYCYADSRSSWYDEYLEHWGQGTLVTVSS
B8: 013S-G04 (HC SEQ ID NO 19) (VHH)
VHH: B3 VHH
B9: 013S-D05 (HC SEQ ID NO 23) (VHH)
VHH: QVKLEESGGGLVQAGGSLRLSCAASGRIFSIYDMGWFRQAPGKEREFVSGIRWSGGTSYADSVKGRFTISKDNAKNTIYLQMNNLKAEDTAVYYCGSRGYWGQGTLVTVSS
B10: 013S-C05 (HC SEQ ID NO 22) (VHH)
VHH: EVQLVESGGGLVQPGGSLRLSCAVSRNIFPIDDMSWYRQAPGKQRELVATVTSGGRINYADSVKGRFTISRDGARRTIDLQMNNLKPEDTAVYYCNVDRTLYGKYKEYWGQGTLVTVSS
B11: 013S-A05 (VHH)
VHH: EVQLVESGGGLVQAGGSLRLSCATSGRTFNTYAMGWFRQAPGKEREFVASVSWRYDRTYYTDTVKGRFTISRDNAKNTVYLQMNSLKPEDTAVYFCAADTNWRAGPRVGIDEYAYWGQGTLVTVSS
B12: 013S-H04 (HC SEQ ID NO 20) (VHH)
VHH: AVQLVDSGGGLVQAGGSLRLSCAVSGRTFSMYDMGWFRQAPGKEREFVASIRWSSGNTWYADSMKGRFTISRDNAKNTVYLQMNSLKPEDTAVYYCYANIYYTRRAPEEYWGQGTLVTVSS
B13: 001S-F11 (VHH)
VHH: QVQLVESGGGLVQAGGSLRLSCAASGRTFSSYAMSWFRQAPGKEREFVAVIGRSGGIKYYADSVKGRFTISRDNTINTVYLQMNNLTPEDTAIYYCATRRPFNSYNTEQSYDSWGRGTLVTVSS
B14: 009S-E04 K1A (VHH)
VHH: DVQLVESGGGLVQAGGSLRLACAGSGRIFAIYDIAWYRHPPGNQRELVAMIRPVVTEIDYADSVKGRFTISRNNAMKTVYLQMNNLKPEDTAVYYCNAARPWGSRDEYWGQGTQVTVSS
B15: 009S-E04 E9A (VHH)
VHH: B14 VHH with A99K, E107A
B16: 009S-E04 D8A (VHH)
VHH: B14 VHH with A99K, D106A
B17: 009S-E04 R7A (VHH)
VHH: B14 VHH with A99K, R105A
B18: 009S-E04 R2A (VHH)
VHH: B14 VHH with A99K, R100A
B19: 009S-E04 W4A (VHH)
VHH: B14 VHH with A99K, W102A
B20: 009S-E04 P3A (VHH)
VHH: B14 VHH with A99K, P101A
B21: 009S-E04 S6A (VHH)
VHH: B14 VHH with A99K, S104A
B22: 009S-E04 G5A (VHH)
VHH: B14 VHH with A99K, G103A
B23: 009S-E04 Y10A (VHH)
VHH: B14 VHH with A99K, Y108A

Experimental findings from patent US20210079089A1 (SURROZEN OPERATING, published 2021) are described below.

Numbering of substitutions follows the chain as printed. Names may count otherwise.

For the first assay, the target named is T1, LRP6E3E4_O75581_631-1246. Nature of the assay: Octet BLI, affinity class. The procedure:
(§1) Binding kinetics of antibody fragments to LRP5 extracellular domain (LRP5 ECD) and/or LRP6 extracellular domain (LRP6 ECD) protein targets was determined by bio-layer interferometry (BLI) using Octet Red 96 (PALL ForteBio, Fremont, Calif.) instruments at 30° C., 1000 rpm with streptavidin (SA) biosensors. C-terminal biotinylated LRP ECD recombinant protein was diluted to 20 nM in the running buffer (PBS, 0.05% Tween-20, 0.5% BSA, pH 7.2) and captured to the SA biosensor until coupling length reached 0.2 nm. Following capture of the LRP5 or LRP6, the SA biosensor with captured biotinylated-LRP5 or biotinylated LRP6 was dipped into wells containing the relevant antibody fragment at […] (0, 1.37, 4.12, 12.4, 37, 111.1, 333.3, 1000 nM) in running buffer, plus a well with only running buffer as a reference channel. KD was determined by global fitting, 1:1 binding model according to manufacturer recommended settings.
Background: BLI is a label-free optical method that tracks binding on a fibre tip over time.
The Kd is a measure of binding affinity in units of concentration. Higher therefore signals a looser complex. As to B1, the Kd is below 500 nM.

The molecule B2 registered a Kd above 500 nM.

B3 had a Kd below 500 nM.

B4: the Kd is below 500 nM.

B5: the Kd was above 500 nM.

As to B6, the Kd is above 500 nM.

Consider B7, for which the Kd is below 500 nM.

For another assay, the target named is T2, LRP6e1e2. In words: Octet BLI, affinity class. The procedure: as §1
The molecule B2 gave a Kd below 500 nM.

Molecule B7 registered a dissociation constant Kd below 500 nM.

In a further assay the target is T1, LRP6E3E4_O75581_631-1246. In words: Octet BLI or BIAcore SPR.
In turn, B1 registered an equilibrium dissociation constant (Kd) below 500 nM.

With B3, the Kd was below 500 nM.

Turning to B8, the Kd is below 500 nM.

As to B4, the dissociation constant (Kd) was below 500 nM.

B9: the Kd is below 500 nM.

Consider B5, for which the Kd is above 500 nM.

B6 returned a Kd above 500 nM.

The molecule B10 came in with a Kd below 500 nM.

Regarding B11, the equilibrium dissociation constant (Kd) was above 500 nM.

Turning to B12, the Kd was below 500 nM.

The target of a further assay is T2, LRP6e1e2. Nature of the assay: Octet BLI or BIAcore SPR.
Take B2: the Kd is below 500 nM.

The molecule B13 returned a dissociation constant Kd below 500 nM.

B7 came in with a dissociation constant Kd below 500 nM.

The next assay addresses T3, biotinylated-LRP6 CRD. Nature of the assay: Octet BLI, biotinylated LRP6. Here is the method: as §1
One antibody fragment, 009S-E04, was selected for alanine-scanning mutagenesis of CDRs, and the respective LRP6 binding affinities of the various mutants were determined by Octet BLI as described in Example 1.
B14 showed a dissociation constant (Kd) below 100 nM.

The molecule B15 displayed a Kd below 100 nM.

Molecule B16 displayed a Kd below 100 nM.

Turning to B17, the Kd is below 100 nM.

The molecule B18 registered an equilibrium dissociation constant (Kd) below 100 nM.

Consider B19, for which the Kd was below 100 nM.

In turn, B20 yielded a Kd below 100 nM.

Regarding B21, the Kd was below 100 nM.

B22 came in with a Kd below 100 nM.

B23 showed a Kd below 100 nM.

A further assay deals with T2, LRP6e1e2. Nature of the assay: Octet BLI. The procedure:
as §1
For the molecule B1, the binding result is on record as “no binding”.

Consider B3, for which the binding result is “no binding”.

For B4, the binding result is “no binding”.
